The chains are these.
T1: human GLP-1 receptor (human), P43220
T1 chain: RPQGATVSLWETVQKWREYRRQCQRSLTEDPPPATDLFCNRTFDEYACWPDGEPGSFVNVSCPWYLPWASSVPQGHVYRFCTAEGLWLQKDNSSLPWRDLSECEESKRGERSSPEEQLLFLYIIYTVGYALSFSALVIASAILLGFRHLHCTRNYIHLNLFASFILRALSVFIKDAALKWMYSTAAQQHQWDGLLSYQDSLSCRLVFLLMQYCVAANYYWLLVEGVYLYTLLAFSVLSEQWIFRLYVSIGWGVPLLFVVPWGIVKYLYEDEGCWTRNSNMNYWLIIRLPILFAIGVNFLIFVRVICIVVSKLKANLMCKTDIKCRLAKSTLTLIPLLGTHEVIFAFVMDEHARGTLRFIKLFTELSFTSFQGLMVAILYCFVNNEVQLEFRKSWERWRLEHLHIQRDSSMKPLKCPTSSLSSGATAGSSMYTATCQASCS

T2: rat GLP-1-R (rat), P32301
T2 chain: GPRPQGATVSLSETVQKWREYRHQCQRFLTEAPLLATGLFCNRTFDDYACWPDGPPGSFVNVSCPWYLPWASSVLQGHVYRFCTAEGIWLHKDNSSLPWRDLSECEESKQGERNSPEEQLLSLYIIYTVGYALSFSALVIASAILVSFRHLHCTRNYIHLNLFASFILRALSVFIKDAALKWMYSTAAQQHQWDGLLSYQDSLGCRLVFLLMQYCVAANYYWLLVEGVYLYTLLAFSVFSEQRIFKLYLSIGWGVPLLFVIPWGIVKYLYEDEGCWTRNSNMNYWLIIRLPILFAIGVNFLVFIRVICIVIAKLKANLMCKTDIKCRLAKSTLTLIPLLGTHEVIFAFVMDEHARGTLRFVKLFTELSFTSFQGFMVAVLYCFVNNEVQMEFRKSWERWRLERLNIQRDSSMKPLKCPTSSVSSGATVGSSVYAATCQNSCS

B1: Compound 1 (peptide)
peptide: H-H[Aib]QGTFTSDYSKYLDEKKAK([AEEA-AEEA-γGlu-C18 diacid])EFVEWLLEGGPSSG-NH2
SMILES: CC(C)C[C@H](NC(=O)[C@H](CC(C)C)NC(=O)[C@H](Cc1c[nH]c2ccccc12)NC(=O)[C@H](CCC(=O)O)NC(=O)[C@@H](NC(=O)[C@H](Cc1ccccc1)NC(=O)[C@H](CCC(=O)O)NC(=O)[C@H](CCCCNC(=O)COCCOCCNC(=O)COCCOCCNC(=O)CC[C@H](NC(=O)CCCCCCCCCCCCCCCCC(=O)O)C(=O)O)NC(=O)[C@H](C)NC(=O)[C@H](CCCCN)NC(=O)[C@H](CCCCN)NC(=O)[C@H](CCC(=O)O)NC(=O)[C@H](CC(=O)O)NC(=O)[C@H](CC(C)C)NC(=O)[C@H](Cc1ccc(O)cc1)NC(=O)[C@H](CCCCN)NC(=O)[C@H](CO)NC(=O)[C@H](Cc1ccc(O)cc1)NC(=O)[C@H](CC(=O)O)NC(=O)[C@H](CO)NC(=O)[C@@H](NC(=O)[C@H](Cc1ccccc1)NC(=O)[C@@H](NC(=O)CNC(=O)[C@H](CCC(N)=O)NC(=O)C(C)(C)NC(=O)[C@@H](N)Cc1c[nH]cn1)[C@@H](C)O)[C@@H](C)O)C(C)C)C(=O)N[C@@H](CCC(=O)O)C(=O)NCC(=O)NCC(=O)N1CCC[C@H]1C(=O)N[C@@H](CO)C(=O)N[C@@H](CO)C(=O)NCC(N)=O
B2: Compound 3 (peptide)
peptide: H-H[Aib]QGTFTSDYSKYLDEKKAK([AEEA-AEEA-γGlu-γGlu-C18 diacid])EFVEWLLSGGPSSG-NH2
SMILES: CC(C)C[C@H](NC(=O)[C@H](CC(C)C)NC(=O)[C@H](Cc1c[nH]c2ccccc12)NC(=O)[C@H](CCC(=O)O)NC(=O)[C@@H](NC(=O)[C@H](Cc1ccccc1)NC(=O)[C@H](CCC(=O)O)NC(=O)[C@H](CCCCNC(=O)COCCOCCNC(=O)COCCOCCNC(=O)CC[C@H](NC(=O)CC[C@H](NC(=O)CCCCCCCCCCCCCCCCC(=O)O)C(=O)O)C(=O)O)NC(=O)[C@H](C)NC(=O)[C@H](CCCCN)NC(=O)[C@H](CCCCN)NC(=O)[C@H](CCC(=O)O)NC(=O)[C@H](CC(=O)O)NC(=O)[C@H](CC(C)C)NC(=O)[C@H](Cc1ccc(O)cc1)NC(=O)[C@H](CCCCN)NC(=O)[C@H](CO)NC(=O)[C@H](Cc1ccc(O)cc1)NC(=O)[C@H](CC(=O)O)NC(=O)[C@H](CO)NC(=O)[C@@H](NC(=O)[C@H](Cc1ccccc1)NC(=O)[C@@H](NC(=O)CNC(=O)[C@H](CCC(N)=O)NC(=O)C(C)(C)NC(=O)[C@@H](N)Cc1c[nH]cn1)[C@@H](C)O)[C@@H](C)O)C(C)C)C(=O)N[C@@H](CO)C(=O)NCC(=O)NCC(=O)N1CCC[C@H]1C(=O)N[C@@H](CO)C(=O)N[C@@H](CO)C(=O)NCC(N)=O
B3: Compound 4 (peptide)
peptide: H-H[Aib]QGTFTSDYSKYLDEKKAK([AEEA-AEEA-γGlu-γGlu-C20 diacid])EFVEWLLSGGPSSG-NH2
SMILES: CC(C)C[C@H](NC(=O)[C@H](CC(C)C)NC(=O)[C@H](Cc1c[nH]c2ccccc12)NC(=O)[C@H](CCC(=O)O)NC(=O)[C@@H](NC(=O)[C@H](Cc1ccccc1)NC(=O)[C@H](CCC(=O)O)NC(=O)[C@H](CCCCNC(=O)COCCOCCNC(=O)COCCOCCNC(=O)CC[C@H](NC(=O)CC[C@H](NC(=O)CCCCCCCCCCCCCCCCCCC(=O)O)C(=O)O)C(=O)O)NC(=O)[C@H](C)NC(=O)[C@H](CCCCN)NC(=O)[C@H](CCCCN)NC(=O)[C@H](CCC(=O)O)NC(=O)[C@H](CC(=O)O)NC(=O)[C@H](CC(C)C)NC(=O)[C@H](Cc1ccc(O)cc1)NC(=O)[C@H](CCCCN)NC(=O)[C@H](CO)NC(=O)[C@H](Cc1ccc(O)cc1)NC(=O)[C@H](CC(=O)O)NC(=O)[C@H](CO)NC(=O)[C@@H](NC(=O)[C@H](Cc1ccccc1)NC(=O)[C@@H](NC(=O)CNC(=O)[C@H](CCC(N)=O)NC(=O)C(C)(C)NC(=O)[C@@H](N)Cc1c[nH]cn1)[C@@H](C)O)[C@@H](C)O)C(C)C)C(=O)N[C@@H](CO)C(=O)NCC(=O)NCC(=O)N1CCC[C@H]1C(=O)N[C@@H](CO)C(=O)N[C@@H](CO)C(=O)NCC(N)=O

Starred links: 1 amine or outer side, 2 acyl side, 3 side chain; linkers in the order of their positions; H or OH if unused. Non-standard residues stand in square brackets, D forms with d. Groups on a side chain read outwards from the residue. *: point of attachment. C20 diacid = O=C(O)CCCCCCCCCCCCCCCCCCC(=O)*; C18 diacid = O=C(O)CCCCCCCCCCCCCCCCC(=O)*; γGlu = O=C(O)[C@H](CCC(=O)[*:2])N[*:1]; AEEA = NCCOCCOCC(=O)O; Aib = CC(C)(N)C(=O)O

For one assay, the target named is T1, human GLP-1 receptor (human), P43220. As to the kind of experiment: cell-based or functional assay.
As to B1, the EC50, cAMP production is 23.9 nM and the Emax, cAMP production amounted to 104%.

Consider H-H[Aib]QGTFTSDYSKYLDEKKAK([AEEA-AEEA-γGlu-C20 diacid])EFVEWLLEGGPSSG-NH2 [Compound 2], for which the EC50, cAMP production is 83.1 nM and the Emax, cAMP production is 107%.

B2 displayed an EC50, cAMP production of 34.3 nM and an Emax, cAMP production of 105%.

Take B3: the EC50, cAMP production stood at 106 nM and the Emax, cAMP production stood at 85.2%.

The target in the next assay is human Gcg receptor (human), P47871. The assay is described as follows: cell-based or functional assay.
Sequence of human Gcg receptor (human), P47871 (P47871 26-477): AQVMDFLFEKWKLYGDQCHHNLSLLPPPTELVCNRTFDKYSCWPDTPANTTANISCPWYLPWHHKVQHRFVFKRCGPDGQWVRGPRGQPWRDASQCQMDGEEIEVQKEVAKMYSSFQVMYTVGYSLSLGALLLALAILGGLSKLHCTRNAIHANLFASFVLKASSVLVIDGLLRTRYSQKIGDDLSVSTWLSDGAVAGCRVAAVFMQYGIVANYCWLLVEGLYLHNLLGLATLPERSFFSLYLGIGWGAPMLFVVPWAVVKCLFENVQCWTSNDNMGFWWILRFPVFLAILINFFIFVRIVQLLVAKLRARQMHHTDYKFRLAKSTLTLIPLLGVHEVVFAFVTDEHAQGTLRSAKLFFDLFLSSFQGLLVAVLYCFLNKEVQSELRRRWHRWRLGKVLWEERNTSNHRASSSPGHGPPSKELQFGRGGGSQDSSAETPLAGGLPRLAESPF
On to B1, for which the EC50 (nM), cAMP production in primary human hepatocytes worked out at 99.9 nM and the EC50, cAMP production is 7.21 nM.

In turn, H-H[Aib]QGTFTSDYSKYLDEKKAK([AEEA-AEEA-γGlu-C20 diacid])EFVEWLLEGGPSSG-NH2 [Compound 2] showed an EC50 (nM), cAMP production in primary human hepatocytes of 159 nM and an EC50, cAMP production of 26.5 nM.

Take B2: the EC50, cAMP production was 15.3 nM and the Emax, cAMP production stood at 104%.

B3 came in with an EC50, cAMP production of 68.8 nM and an Emax, cAMP production of 116%.

The next assay deals with T2, rat GLP-1-R (rat), P32301. The assay is described as follows: cell-based or functional assay.
B1 came in with an EC50 (nM), cAMP production in INS1 832-3 cells of 26.1 nM and an Emax (%), cAMP production in INS1 832-3 cells of 112%.

The molecule H-H[Aib]QGTFTSDYSKYLDEKKAK([AEEA-AEEA-γGlu-C20 diacid])EFVEWLLEGGPSSG-NH2 [Compound 2] displayed an EC50 (nM), cAMP production in INS1 832-3 cells of 62 nM and an Emax (%), cAMP production in INS1 832-3 cells of 104%.

The target in the next assay is human Gcg receptor (human), P47871. The assay is described as follows: radioligand competition SPA, displacement of I-125 Gcg, hGcg-R 293HEK membranes. For orientation: Loss of bound radioactivity is the signal in a displacement assay; it reports binding, not function.
With B1, the Ki amounted to 14.6 nM. In other words, the double-digit nanomolar range.

H-H[Aib]QGTFTSDYSKYLDEKKAK([AEEA-AEEA-γGlu-C20 diacid])EFVEWLLEGGPSSG-NH2 [Compound 2]: the Ki is 17.7 nM. The Ki values of the last two molecules are within 1.5-fold of each other.

In turn, B2 gave a Ki of 37.3 nM.

B3 gave a Ki of 27.4 nM.

The next assay addresses T1, human GLP-1 receptor (human), P43220. The assay is described as follows: radioligand competition SPA, displacement of I-125 GLP-1, hGLP-1-R 293HEK membranes.
Regarding B1, the inhibition constant (Ki) was 23 nM. In other words, the double-digit nanomolar range.

With H-H[Aib]QGTFTSDYSKYLDEKKAK([AEEA-AEEA-γGlu-C20 diacid])EFVEWLLEGGPSSG-NH2 [Compound 2], the Ki came to 28.6 nM. This Ki and that of the molecule before are within 1.5-fold of each other.

In turn, B2 displayed a Ki of 8.68 nM.

Turning to B3, the Ki stood at 20.2 nM.

For orientation: Ki means the equilibrium dissociation constant of an inhibitor or competing ligand from its target.
